Laboratory results: US20160355591A1
One block for each substance: values may come before it.

Columns and labels:
[1] = molecular target: CD22 on dog lymphocytes and dog lymphoma cells (dog); assay: flow cytometry, dog lymphoma aspirate; none 3.24
[2] = molecular target: CD22 on dog lymphocytes and dog lymphoma cells (dog); assay: flow cytometry, dog lymphoma aspirate; none 4.48
[3] = molecular target: CD22 on dog lymphocytes and dog lymphoma cells (dog); assay: flow cytometry, canine lymphoma aspirate 150836; none 3.2
[4] = molecular target: CD22 on dog lymphocytes and dog lymphoma cells (dog); assay: flow cytometry, canine lymphoma aspirate 150836; none 4.5
[5] = molecular target: CD22 on human cells (human) (UniProt P20273); assay: 697 (ALL) cells; no mAb 4.9
[6] = molecular target: CD22 on human cells (human) (UniProt P20273); assay: REH (ALL) cells; no mAb 3.9
[7] = molecular target: CD22 on human cells (human) (UniProt P20273); assay: K562 (CML) cells; no mAb 3.2
[8] = molecular target: CD22 on human cells (human) (UniProt P20273); assay: MN60 (ALL) cells; no mAb 8.1
[9] = molecular target: CD22 on human cells (human) (UniProt P20273); assay: WAC (CLL) cells; no mAb 15.8
[10] = molecular target: CD22 on human cells (human) (UniProt P20273); assay: MEC-1 (CLL) cells; no mAb 4.7
[11] = molecular target: CD22 on human cells (human) (UniProt P20273); assay: GDM-1 (AML) cells; no mAb 16.8
[12] = molecular target: CD22 on human cells (human) (UniProt P20273); assay: RS4;11 (ALL) cells; no mAb 6.4
[13] = molecular target: CD22 on human cells (human) (UniProt P20273); assay: Jeko-1 (MCL) cells; no mAb 14.3
[14] = molecular target: CD22 on human cells (human) (UniProt P20273); assay: Kasumi-3 (AML) cells; no mAb 9.6
[15] = molecular target: CD22 on human cells (human) (UniProt P20273); assay: Kasumi-1 (AML) cells; no mAb 18.2
[16] = molecular target: CD22 on human cells (human) (UniProt P20273); assay: Granta-519 (MCL) cells; no mAb 15.3
[17] = molecular target: CD22 on human cells (human) (UniProt P20273); assay: HC-1 (hairy cell leukemia) cells; no mAb 4.8
[18] = molecular target: CD22 on dog lymphocytes and dog lymphoma cells (dog); assay: flow cytometry, dog lymphoma aspirate; none 3.37
[19] = molecular target: CD22 on dog lymphocytes and dog lymphoma cells (dog); assay: flow cytometry, dog lymphoma aspirate; none 3.85
[20] = molecular target: CD22 on dog lymphocytes and dog lymphoma cells (dog); assay: flow cytometry, canine lymphoma aspirate 150836; none 3.4
[21] = molecular target: CD22 on dog lymphocytes and dog lymphoma cells (dog); assay: flow cytometry, canine lymphoma aspirate 150836; none 3.9
[22] = molecular target: CD22 on human cells (human) (UniProt P20273); assay: indirect flow cytometry, Namalwa cells, FITC-GAM 2nd Ab; none 2.91
[23] = molecular target: T1, CD20 on human cells (human) (UniProt P11836); assay: 697 (ALL) cells; no mAb 4.9
T1 sequence (looked up): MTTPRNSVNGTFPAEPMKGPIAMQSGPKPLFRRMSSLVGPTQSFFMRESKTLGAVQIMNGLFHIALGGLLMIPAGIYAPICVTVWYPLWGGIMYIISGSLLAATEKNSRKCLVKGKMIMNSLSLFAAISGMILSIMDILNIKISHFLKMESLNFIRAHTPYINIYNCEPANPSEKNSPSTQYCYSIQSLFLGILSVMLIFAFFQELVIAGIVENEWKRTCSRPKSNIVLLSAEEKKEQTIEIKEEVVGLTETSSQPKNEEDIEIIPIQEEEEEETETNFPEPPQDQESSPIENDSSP

[24] = molecular target: T1, CD20 on human cells (human); assay: REH (ALL) cells; no mAb 3.9
[25] = molecular target: T1, CD20 on human cells (human); assay: K562 (CML) cells; no mAb 3.2
[26] = molecular target: T1, CD20 on human cells (human); assay: MN60 (ALL) cells; no mAb 8.1
[27] = molecular target: T1, CD20 on human cells (human); assay: WAC (CLL) cells; no mAb 15.8
[28] = molecular target: T1, CD20 on human cells (human); assay: MEC-1 (CLL) cells; no mAb 4.7
[29] = molecular target: T1, CD20 on human cells (human); assay: GDM-1 (AML) cells; no mAb 16.8
[30] = molecular target: T1, CD20 on human cells (human); assay: RS4;11 (ALL) cells; no mAb 6.4
[31] = molecular target: T1, CD20 on human cells (human); assay: Jeko-1 (MCL) cells; no mAb 14.3
[32] = molecular target: T1, CD20 on human cells (human); assay: Kasumi-3 (AML) cells; no mAb 9.6
[33] = molecular target: T1, CD20 on human cells (human); assay: Kasumi-1 (AML) cells; no mAb 18.2
[34] = molecular target: T1, CD20 on human cells (human); assay: Granta-519 (MCL) cells; no mAb 15.3
[35] = molecular target: T1, CD20 on human cells (human); assay: HC-1 (hairy cell leukemia) cells; no mAb 4.8
[36] = molecular target: T2, CD20 on dog lymphocytes and dog lymphoma cells (dog) (UniProt Q3C2E2); assay: flow cytometry, dog lymphoma aspirate; none 3.37
T2 sequence (looked up): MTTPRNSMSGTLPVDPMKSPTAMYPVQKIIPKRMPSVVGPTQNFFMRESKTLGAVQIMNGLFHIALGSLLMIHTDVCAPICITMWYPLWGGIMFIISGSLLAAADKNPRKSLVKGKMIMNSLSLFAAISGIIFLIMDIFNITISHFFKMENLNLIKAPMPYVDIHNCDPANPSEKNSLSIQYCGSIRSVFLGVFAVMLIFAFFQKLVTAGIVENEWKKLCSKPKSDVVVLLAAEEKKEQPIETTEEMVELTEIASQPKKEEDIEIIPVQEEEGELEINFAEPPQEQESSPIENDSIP

[37] = molecular target: T2, CD20 on dog lymphocytes and dog lymphoma cells (dog); assay: flow cytometry, dog lymphoma aspirate; none 3.85
[38] = molecular target: T2, CD20 on dog lymphocytes and dog lymphoma cells (dog); assay: flow cytometry, canine lymphoma aspirate 150836; none 3.4
[39] = molecular target: T2, CD20 on dog lymphocytes and dog lymphoma cells (dog); assay: flow cytometry, canine lymphoma aspirate 150836; none 3.9
[40] = molecular target: T2, CD20 on dog lymphocytes and dog lymphoma cells (dog); assay: flow cytometry on tumor aspirates from dogs with lymphoma
[41] = molecular target: T1, CD20 on human cells (human); assay: indirect flow cytometry, Namalwa cells, FITC-GAM 2nd Ab; none 2.91
[42] = molecular target: CD74 on dog lymphocytes and dog lymphoma cells (dog); assay: flow cytometry, dog lymphoma aspirate; none 3.24
[43] = molecular target: CD74 on dog lymphocytes and dog lymphoma cells (dog); assay: flow cytometry, dog lymphoma aspirate; none 4.48
[44] = molecular target: CD74 on human cells (human) (UniProt P04233); assay: indirect FACS, Raji cells, FITC-GAH Fc 2nd Ab; none 6.8
CD74 on human cells (human), sequence (P04233 whole entry): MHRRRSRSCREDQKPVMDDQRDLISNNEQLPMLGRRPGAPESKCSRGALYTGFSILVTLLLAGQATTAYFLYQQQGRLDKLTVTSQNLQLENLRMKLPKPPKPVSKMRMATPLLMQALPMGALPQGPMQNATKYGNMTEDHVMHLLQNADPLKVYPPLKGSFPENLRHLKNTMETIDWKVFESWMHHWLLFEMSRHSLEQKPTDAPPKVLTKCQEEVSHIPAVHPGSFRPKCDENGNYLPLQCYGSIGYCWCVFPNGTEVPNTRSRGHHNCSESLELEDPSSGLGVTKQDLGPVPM

[45] = molecular target: CD74 on human cells (human) (UniProt P04233); assay: indirect FACS, Daudi cells, FITC-GAH Fc 2nd Ab; none 3.1
[46] = molecular target: CD74 on human cells (human) (UniProt P04233); assay: indirect FACS, Ramos cells, FITC-GAH Fc 2nd Ab; none 3.1
[47] = molecular target: CD74 on dog lymphocytes and dog lymphoma cells (dog); assay: flow cytometry, canine lymphoma aspirate 150836; none 3.2
[48] = molecular target: CD74 on dog lymphocytes and dog lymphoma cells (dog); assay: flow cytometry, canine lymphoma aspirate 150836; none 4.5
[49] = molecular target: CD74 on human cells (human) (UniProt P04233); assay: indirect FACS, Namalwa cells, FITC-GAH Fc 2nd Ab; none 2.5
[50] = molecular target: CD74 on human cells (human) (UniProt P04233); assay: indirect FACS, SU-DHL-6 cells, FITC-GAH Fc 2nd Ab; none 4.6
[51] = molecular target: CD74 on human cells (human) (UniProt P04233); assay: indirect FACS, WSU-FSCCL cells, FITC-GAH Fc 2nd Ab; none 2.6
[52] = molecular target: CD74 on human cells (human) (UniProt P04233); assay: indirect flow cytometry, RL cells, FITC-GAH Fc 2nd Ab; none 2.4
[53] = molecular target: CD74 on human cells (human) (UniProt P04233); assay: indirect flow cytometry, Raji cells, FITC-GAH Fc 2nd Ab; none 6.9
[54] = molecular target: CD74 on human cells (human) (UniProt P04233); assay: indirect flow cytometry, Namalwa cells, FITC-GAH 2nd Ab; none 2.52
[55] = molecular target: CD74 on human cells (human) (UniProt P04233); assay: indirect flow cytometry, Daudi cells, FITC-GAH Fc 2nd Ab; none 3.2
[56] = molecular target: CD74 on human cells (human) (UniProt P04233); assay: indirect flow cytometry, Ramos cells, FITC-GAH Fc 2nd Ab; none 3.1
[57] = molecular target: CD74 on human cells (human) (UniProt P04233); assay: indirect flow cytometry, Namalwa cells, FITC-GAH Fc 2nd Ab; none 2.6
[58] = molecular target: CD74 on human cells (human) (UniProt P04233); assay: indirect flow cytometry, SU-DHL-6 cells, FITC-GAH Fc 2nd Ab; none 4.6
[59] = molecular target: CD74 on human cells (human) (UniProt P04233); assay: indirect flow cytometry, WSU-FSCCL cells, FITC-GAH Fc 2nd Ab; none 2.7

- mean FL [1]: 3.37
- % Positive [2]: 4.85%
- mean FL [3]: 3.4
- % Positive [4]: 4.9%
Substance: hLL2 (epratuzumab, humanized anti-CD22) (antibody)

- mean FL [5]: 15.9
- mean FL [6]: 16.8
- mean FL [7]: 4.3
- mean FL [8]: 17.1
- mean FL [9]: 20.1
- mean FL [10]: 49
- mean FL [11]: 28.5
- mean FL [12]: 20.9
- mean FL [13]: 25
- mean FL [14]: 13.9
- mean FL [15]: 20.9
- mean FL [16]: 28.6
- mean FL [17]: 17.8
- mean FL [18]: 3.73
- % Positive [19]: 5.05%
- mean FL [20]: 3.7
- % Positive [21]: 5.1%
- geometric mean fluorescence [22]: 10.5
Substance: LL2 (murine anti-human CD22 mAb) (antibody)

- mean FL [23]: 6.9
- mean FL [24]: 23.5
- mean FL [25]: 4.3
- mean FL [26]: 162
- mean FL [27]: 275
- mean FL [28]: 175
- mean FL [29]: 15.6
- mean FL [30]: 11.5
- mean FL [31]: 455
- mean FL [32]: 11
- mean FL [33]: 14.5
- mean FL [34]: 677
- mean FL [35]: 42.2
- mean FL [36]: 3.11
- % Positive [37]: 2.61%
- mean FL [38]: 3.1
- % Positive [39]: 2.6%
- positive samples (of 21 samples) [40]: 5
- strongly positive samples (of 21 samples) [40]: 3
- geometric mean fluorescence [41]: 6.16
Substance: 2B8 (murine anti-human CD20 mAb) (antibody)

- mean FL [42]: 3.33
- % Positive [43]: 4.71%
- geometric mean fluorescence [44]: 95.1
- geometric mean fluorescence [45]: 48.8
- geometric mean fluorescence [46]: 23.2
- mean FL [47]: 3.3
- % Positive [48]: 4.7%
- geometric mean fluorescence [49]: 7.81
- geometric mean fluorescence [50]: 17.3
- geometric mean fluorescence [51]: 8.66
- geometric mean fluorescence [52]: 7.9
- geometric mean fluorescence [53]: 95.1
- geometric mean fluorescence [54]: 10.1
- geometric mean fluorescence [55]: 48.8
- geometric mean fluorescence [56]: 23.3
- geometric mean fluorescence [57]: 7.8
- geometric mean fluorescence [58]: 17.3
- geometric mean fluorescence [59]: 8.7
Substance: hLL1 (milatuzumab, humanized anti-CD74) (antibody)
